Here are results for two molecules from publication doi:10.1101/858225, “FANCD2-FANCI is a clamp stabilized on DNA by monoubiquitination during DNA repair” (bioRxiv, 2019).

The chains are these.
B1: His-tagged Gallus gallus FANCI (expressed alone) (natural protein, UniProt B0I564 1-1338, looked up)
chain: MAQRILQLAAEGSPERLQEALQGLTEGELGDMVTRQALRGRETAALLKGIFKGSPCSQQSGVLRRLQVYKHCVSLVESGDLHVGKVSEIIGLLMLEARQLPGHALAELATLFVEVIKRGSLSNGKSLELFSTVLTALSNSKESLAYGKGELNGEEFKKQLINTLCSSKWDPQCVIHLANMFRDIPLSGEELQFVVEKVLRMFSKLDLQEIPPLVYQLLLLSAKGSKKTVLEGIISFFNQLDKRQKEEQRVPQSADLEVATVPLDQLRHVEGTVILHIVSAINLDQDIGEELIKHLKTEQQKDPGKALCPFSVSLLLSTAVKHRLQEQIFDFLKTSITRSCKDLQILQASKFLQDLCPQQYDVTAVILEVVKNSAFGWDHVTQGLVDLGFSLMESYEPKKSFGGKAAETNLGLSKMPAQQACKLGASILLETFKVHEPIRSDILEQVLNRVLTKAASPVSHFIDLLSNIVVSAPLVLQNSSSRVTETFDNLSFLPIDTVQGLLRAVQPLLKVSMSVRDSLILVLQKAIFSRQLDARKAAVAGFLLLLRNFKILGSLTSSQCSQAIGATQVQADVHACYNSAANEAFCLEILGSLRRCLSQQADVRLMLYEGFYDVLRRNSQLASSIMETLLSQIKQYYLPQQDLLPPLKLEGCIMAQGDQIFLQEPLAHLLCCIQHCLAWYKSTVHLCKGAEDEEEEEDVGFEQNFEEMLESVTRRMIKSELEDFELDKSADFSPSSGVGVKNNIYAIQVMGICEVLIEYNFKIGNFSKNKFEDVLGLFTCYNKLSEILKEKAGKNKSTLGNRIARSFLSMGFVSTLLTALFRDNAQSHEESLAVLRSSTEFMRYAVSVALQKVQQLEEMGQTDGPDGQNPEKMFQNLCKITRVLLWRYTSIPTAVEESGKKKGKSISLLCLEGLLRIFNTMQQLYAARIPQFLQALDITDGDAEEADINVTEKAAFQIRQFQRSLVNQLSSAEDDFNSKETQLLITILSTLSKLLDPGSQQFLQFLTWTVKICKENALEDLSCCKGLLTLLFSLHVLYKSPVSLLRELAQDIHACLGDIDQDVEIESRSHFAIVNVKTAAPTVCLLVLGQADKVLEEVDWLIKRLTILGSDTSEDSTQASNQTQALEKGVILQLGTLLTVFHELVQTALPAGSCVDSLLRSLSKTYAILTSLIKHYIQACRSTSNTVPGRLEKLVKLSGSHLTPQCYSFITYVQNIHSESLSFAEEKKKKKKEDETAVVSTVMAKVLRDTKPIPNLIFAIEQYEKFLIHLSKKSKVNLMQYMKLSTSRDFRINASMLDSVLQEQNTEDAENEPDNNQSGTAEQPDENQEPQKKRRRKK
notes: FANCI, Gallus gallus, full length cDNA synthesized (GeneArt); C-terminal extension with a 3C protease site before the 6x His tag; no cleavage is described; The results call the FANCI of the pull-down 'untagged', the methods 'His-tagged'; also called free FANCI; monomeric FANCI; source: Sf9, purified (HisTrap, heparin, Superdex 200); not shown: 6x His, C-terminal, kept
B2: StrepII-tagged Gallus gallus FANCD2 (expressed alone) (natural protein, UniProt Q68Y81 1-1439, looked up)
chain: MVSKRKLSKIDAAEESSKTDLQSRCPETKRSRISDKRAPSQGGLENEGVFEELLRTSGIILKVGEGQNEIAVDQTAFQKKLRVALEKHPSYPGVVNEFISGLESHIKDRSQFKNCLLPCTPARTEGSRTLVHSYCESLIKLLLGIKILQPAVVTLLLEKIPEFFFDVVGTFGTNFPRLIVNQFKWLDGLLDSQDLVKKLMQMLSVSPVPIQHDIITSLPEILEDSQQNEVARELSCLLKQGRRLTVPILDALSRLDLDAELLAEVRQSAMTIVPSVKLEDLPVVIKFILHNVKAADAVEVISDLRKSLDLSSCVLPLQLLGSQRKLKSQAQASSSMSQVTTSQNCVKLLFDVIKQAVRFQKDVSEAWIKAIENSTSVSDHKVLDLIVLLLIHSTNSKNRKQTEKVLRSKIRLGCMPEQLMQNAFQNHSMVIKDFFPSILSLAQTFLHSAHPAVVSFGSCMYKQAFAVFDSYCQQEVVCALVTHVCSGNETELDISLDVLTDLVILHPSLLLRYATFVKTILDSMQKLNPCQIRKLFYILSTLAFSQRQEGSYIQDDMHMVIRKWLSSSVPNHKQMGIIGAVTMMGSVALKRNEADGGLLERPELSIECDGQLSTLLDLVGFCCEQTPEVLALYYDELANLIEKQKGNLDLQLLDKFGKSLVEDFPNDFVVDLSPTVDGSFLFPVKSLYNLDEDETQGAIAINLLPLVSQSEPGRVADEMSNSRKRVVSPICLSPCFRLLRLYTGEQNNGSLEEIDALLGCPLYLTDLEVEGKLDSLSKQEREFLCSLLFYALNWFREVVNAFCQQQDAEMKGKVLTRLQNITELQNVLGKCLAATPGYVPPPATFDSEAPEGVPSINAGGPVRKKNGKKRKSDSSKACSAERTQADESSDGNQPDTELSELEKSATEKETGNPLAQLQSYRPYFRELDLEVFSVLHCGLLTKSILDTEMHTEASEVVQLGPAELCFLLDDMCWKLEHVLTPGSTRRVPFLKERGNKDVGFSHLCQRSPKEVAVCVVKLLKPLCNHMENMHNYFQTVIPNQGVVDESGLNIQEYQLMSSCYHQLLLAFRLLFAWSGFSQHENSNLLRSALQVLADRLKPGETEFLPLEELISESFQYLLNFQASIPSFQCAFILTQVLMAISEKPMTGWKREKMASLAKQFLCQSWMKPGGDREKGSHFNSALHTLLCVYLEHTDNILKAIEEISSVGVPELINSAKDGCSSTYPTLSRQTFPVFFRVMMAQLESSVKSIPAGKPSDSGEVQLEKLLKWNIAVRNFHILINLVKVFDSRPVLSICLKYGRLFVEAFLKLAMPLLDHSFKKHRDDVQSLLKTLQLSTRQLHHMCGHSKIHQDLGLTNHVPLLKKSLEQFVYRVKAMLAFNHCQEAFWVGVLKNRDLQGEEILSQASAAPEEDSAEGSEEDTADSAAEEPDGTDSDSGGAGR
notes: FANCD2, Gallus gallus, full length cDNA synthesized (GeneArt); C-terminal extension with a 3C protease site before the double StrepII tag; no cleavage is described; also called FANCD2 homodimer; D2-D2; source: Sf9, purified (Strep-Tactin, heparin, Superdex 200); not shown: double StrepII, C-terminal, kept

Data set [1] addresses B2. Briefly: pull-down; StrepII-tagged FANCD2 held on StrepTactin Sepharose, FANCI added at FANCD2:FANCI molar ratios 1:0 to 1:5 and 0:5; 50 mM HEPES pH 7.5, 150 mM NaCl, 1 mM TCEP; 15 min room temperature, 30 min 4 °C on resin, two washes; bound fraction by SDS-PAGE. The conditions noted are these: both partners purified.
Data set [2] concerns the molecule itself. Briefly: SEC; Superdex 200 10/300, 50 mM HEPES pH 7.5, 150 mM NaCl, 1 mM TCEP; 300 µl of each protein at 1 µM; mix of 0.5 µM FANCD2 with 1 µM FANCI incubated 30 min at room temperature; fractions by SDS-PAGE. In general terms: Size exclusion chromatography separates by hydrodynamic size, large species first.

As a reminder, the stoichiometry N is a count of units in the complex or per binding partner.

As to B1, in data set [1], the “stoichiometry N” value is approximately 1.

With B2, in data set [2], the “stoichiometry N” value turned out to be 2.
